Test: soluble on expression in E. coli; label from the status in PepcDB or PDB records

Sequence | soluble on expression in E. coli
GPGSMLALSQGLPTVDPALVKAFKRAANNASTSGDVDDDSRRQEVARINKEAQKAWRAEEKSFIPAIYLRTRDPSAEDVLQHLRVTSKAFELNLRFRDIEQLDEMQVKLWSLLTADKSKQTVTISEFTEIMNKLKVWQGQRFEPTPKTSPCREISVRSAQQECPVDTTPLDEVMYVGVAKRPRPSLQLFLSCPRSHAGGVEVAHIYQRFAKQVSLVKCEAELLMWDTNNDGRLTEDELESYVRDLVSRVDALRDISNDILPFYCCAVSRRIFWALDPGMRGTIRIDALLQSPLMDEWVSLQLMREDLPRNWFSAAITSHLYDKFLLLDTRNQGTLNAANMKLYKKGLPTVRDDGLPRGVGPLSSLFIDRFFETSVMMACSELDFRKFVDFVIAVEFLPACQRPLFFWNILDIEGCGVLRPVHVNSFFRETHSKLVEAGLEMPSRETVVQEVFDLIPTAEPLRITREEFVKAPQAGLFVALLIDCLSFWAYENREQR | not soluble
GPGSMPAKKKEVKVDEPLFVDEEGSYVHEAEGARYKGGVRRYAPPGGTDAGGTAAPPAKNSRSRSTSSPGKGGATPPPSAAAGAAASMAVVSDAPVFRHGRGVYTCPSFTYAGDWVEDEMHGSGQLTFVESGNIYEGEFSHGCFSGQGTYQWRDGALYCGQWRSNRMHGEGIYTDVQGHVWKGRYYNGTGPGLIRLYPTLERVDDAGPSSPGPDATNAAATVANS | soluble
GPGSMPNPLVRLGKELKEATEHPDPDIHLELYDPTKGSDGSRSSQGAALQPSQQQPGLYTWLAILKGPPDTPFAGGSYRLVLSIPHEYPLVPPKAAFITKVFHPNVEFNTGNVCLDILKKRWSPVWTLSSVCRAILNLLAEPESDSPFNCDAGNLLRAGDMEGYASLVRYYAITDAGAPPFADNEE | not soluble
GPGSMPTRPLLVKYETPVLLSEVKHKKALKEKKRVAVGAQSGPQAEDVLYSIIPPREFEENGQQWVQYVSSIPATRMDVINLQERLDSLLLERNARETGICPVREELYSQVFDELIRQVTVNCAERGLLLLRVRDELRMTLDAYRSLYESSAAYGMRKALQAEQSKIEMESKIQALEREKEELKQQVEELEYRCESIIQQEKEKFAEAERKHNEEVAFFRRTYQTLTTNLQTLCNATKA | soluble
GPGSMRRLFPTAKLLGSTTGIRLASMKSSDKERLERLVEEVNGIKSKLKVLEESKAANGLVDLYASRKMKRLDIKRILGIFNDRAYHAPIFCHKALPIILAHFITGLDRLPSGLNAMPSILAVRATLLRSFQKLINCKIPATDDQVQHFRRVLEDIDEEHAERNLLQTMAFGILELKEYVSSHRRALVDLKKTSERWASIPMTEENVLTYAEIQDIQAPLDSVNRCMITYNFISRMFLNHDPDMTMSSNPRRIGMVDLEMNLEHVVRNAVDEAKQICTDHYGDCPDTEFELTSDTKAFRFPYMSTTIRYIILELMKNAFRATVDSHMKRNDVGMVTCADMPPVRVLINLQEGTEHACICISDEGMGMTDEALTMAMAYSYTSVSKPALQLGESGERCASTAPSPLAGYGYGLPMSRVYAQSLGGDLLLQTMEGYGTRAYYYIKIADAQPLCDEETK | soluble
GPGSMRSAVTCIKSPGAALFTDTATCRTITLSRPDALNVMSLPMVQDLHRLYITEPHPNEDAVYVVRGDGRRSFCAGGDLKALTGPERDTHNPLFYRLEYEVDSHIAVMRRTQVAMWAGHVLGSGVGVSVHSRYRVACETTRFAMPETQIGGANDVATSWVFSSLPICGLGMYLAITGNALQGADVFHAGLATHYIPVEKFGAVEAALAALPSSEGVEECLRGFSEDVAVPPFTLAESAPVLAKAFGTITPWTRLRDIMDVLRADGSAFAASTLEVMERNSPLGMTLALENMKRQHTPGCNTVMESFRGDYTAIQTSIFADELAKGVEALFVTKEKRPQWTVESVDEVDVELVKQQFALTEGVRVSAGGKDGRACFGVFGCYRAQASPVG | soluble
GPGSMSAGGRETAPMNLLRRRNKDEINGDVNAAADRFRNRFEKATLEERKAATTTMVNEYYDLVTDFYEYGWGQNFHFAPRYAGETFFESLARHEYFLAARGGFMEGDHIVDVGCGVGGPARNIVRLTRCNVTGVNNNDYQISRARRHDALAGMSCKIDYVKTDFCNMSLADNTFDGAYAIEATCHAKDKVKCYSEVFRVIKPGTCFVLYEWCMTDKYNPNDEYHRTIKHRIELGDGLPEMETCKQVIEYMKEAGFVVEEAIDVISQFESSPIKSIPWYQPLVGDYSSLQGLRSTPIGRILTNIMCRVLEFVHLAPKGTYKATEVLEEAAESLVVGGQLGIFTPSFYIRARKPSKQA | not soluble
GPGSMSARPSVSVYSASSDSVVGTCPLPAVFTAPIRSDIVKFVHTNMAKNSRQAYAVNRLSGMNHSAHSWGTGRAVARIPRISGGGTSTSGAGAFGNMCRGGRMFAPTKIFRRWHRKINLHQKRFAVVSALAASSVPSLVMSRGHQIGNVPEVPLVVEDSIQGYEKTKEAMAFLKAIAAIDDVNRVNDSREIRAGRGKMRNRRYVARRGPMLVMPNNKGTRAFRNIFGLDLANVSALNLLHLAPGGHVGRFVIWTQSAFEQLDKIFGTFTEASAVKKGFTLPAPMLTNTDVTRIMQSEEVRRVLKPKKLQAKKASRFQTPTNGMKNRRLRLRLNPYVKRETAAAKGMRNVANRDARRKAKLARVTKAKKAATKSAKQ | not soluble
GPGSMSKGAVVLVLDITLPRAAALVEACNLCDRILTDKMIYAPSDEVSVILAGTEKSRSALYEQSVQARYNHITVAAELGPATSLTLAPIAATRAGVAVLPEGETVRPSIAEAYDFIDALQVAVAVLQARTSQKKYNRCIYFLTDARHEVRHKEDLLSLIDILQRDQVALVVIGFDFQALPAPADSQGEFNESTTVVPSAWAALDRKAQNERILAALCTELGPPSTLVSPAEALASLSLLRCRRIRQQPVLKVALRMGDVRLATQLFTLTQEERLPSLRRSTQDGVDVAQTIEYVVLGGVEERPCALAKEERVEAFFLGVDRISCSEADREAMRVKGPRALEAIGFVGEAEVEPYLLMGGTRALLPLAGDHAGQRGFNALVDAMASSRKAMLVRLVRTADAAPSLCVCFARTAGSSAAQRHLVLAPLPFAEDVRALRFSEYPELQFSAAEEQLMDELIDGLSVDDSVLAPHDTFNPVLQQYYATLRAKLSAMNVSAEKGNTKATSPEAAVPQLLPTLRGTSTDFFAEGSEVYEVVSAHRSALVSCATAFPYEDEADALLSGSRDAGRKGKPWYQDVAMTPSLIGPQAGSPPPAAQGSDGAPSTIAPAIAGGARCGGEADEASAGSHTASDANSISTVPHDTISGGVSFAITSVDPVGSFSMIVHHPAVTEAQLNKAKDDLSDVIWELLRSSIKDAIYRKCMACIMALRQFCVTQDDAAYYNDFLLKLEVVARQCSRDADFWVPYVVERKDGANVWPITAQECKSAALPDDTAAKAFLQKDRFDPAIAFDDTADDDDWLAEIQ | not soluble
GPGSMSLLKGKEVEVTQDDQRRICIFARMHRRRKELTATITRLKEQAAKLSDASDELMIADGAMYLFGETFVAIDNDEAGEWLAKEQAQLQRDQETTEEELKLVESQLSDLKAKLYASLGSQVYLEDE | soluble
GPGSMSNAVSGVIDARWMRFLRECKQRELVAEIEVLRRTFEATLDRKKGFSTTLLEELSVAEEQCRHAFRSHMDVVSSLLQLHAARTKDLEADLDANVAEMQQDFEYERAELELKHMIEMDDLRLILDNMAAEAEMLEKKLQEETSEGHETAAEKMDEAMREMEADLNKVEDGLRGELDSRYKKFMSAAQANMKEYTAKCKEDQETTERIAAQLRKIEKLQSSVSSWRTNIARNAKEWEDRNAAIQAERDATLSHLKKLKDKMQRWRELQSKALVELVKEANATEEALQATSKRAVRLLRLVELCKPMETEREQVLLHEANISSAAVEAETKRRVAAESSGNAQDDVLRGGDAAPAANEQWLSLDRFWVKHNKVVLDNAALTQERFLLEEENRVLQEVLKQYLDDVSISDQVMRQSNTLLLTQGANYNVVQAANASDNSVVRGYNVIEGNKFVNDQSRQAISH | not soluble
GPGSMTALSLALGIHDQATTKFGSKDFCDAVEAEAAAANAHQYRMFLLAMETLLQRQWEHYCFHGGNHITKSQQLEEKRLCRYFSVHCMNMEGRGCRDERKHRKLFGSGAAGPLIDFIYRLICHSHCSIECYPITLALTGRFFVEMRKESVATEYEAAVDHLPCVFAVLLLITAKYRDDNFRSNRYFSQLAELSLMEWNALERLVIRVLRFNVNVPFYEYVAYEKLLLKEMMRQEEKKCGFPSIDQSPRSEKMESLMHLDSKNDMSMLFFDHVEMAMKDNASFHSCGVTASSPSLRSQCPLMSVEDSPVSWRQGV | not soluble
GPGSMTDDSSGLQSELSHALEGEGNLSVDAMLSQSLVKADLQTPSARILLKKIERPPGRFDLLTNSLVYSWQTTAAQARKVTGPMREWASELKYRTGVHLEVEPTNPTRLGVPEEEGGYAAADDVELTVYLFGSERGIFNCRQLMETALDQNPAYVRLAVFRRRPGKGVSTSTAAVPRPQEDVEWLLLRRINRDLRPPDIPPISLKTPGKWTLLYEQYKEAAIRTLWEETGITVEAGNVYPTAVLCQDNPIYYWRVPVHYFLAEVPYDVQVLGPQVGLNTYMHHWDSSLLRQSPDPIDRAWAQLADPETGCAWMKQPMIDELQRPLRGENYMATRYTPPPYSQLNHALGLAVPAEAAGEASAADSALSAATTAEGGEAQDDVKEDDAAAPSADADASSSNDKPSS | soluble
GPGSMTGLTVPRGEYTNVVVHHRMVGVSAFDDQFNCDWNFELYGVAERIKEHHGGAISDGFRMWLNRVEPGFIVRNFKQSLREAFGLTPPSALLMTSEEDIPHHEVTVYYDFEPAALRFPLLNIRLGE | soluble
GPGSMTVRRMFCFLLPPPSHHRLSRSSLAHAHLPHIRMSAHFAQCRSTHVHTYTHTHVHTHDTLARAACRLCTSSPPVRAREMALLAPKALHKRVKGTNVEVRKEVTDDNTDAQLALLYSIHADDETELRWLHNTLRPERNLVHPSDAFLHGIKALHPAAVFNTFDVKKAKLRRLTKYEKDKETAMKRRKKEVAPTAAYKAAVNPHKTPRTGGAAPADEVRVLSRGMNKAQKARSRTRTAHKSGKVVNGAEAPKGFFTKWKKRKLEKIGRGL | soluble
GPGSMTYKLLAPLHPESARAQKIMVAAAYANVDVELKVCQYGQENETPEFARNCSPCMRFPSMQTEEGYLFESNAIMRHIARVEKSGAKLYGATPFESSQVDMWLDFASSELDAHNTPYLMETFAGIPAPESAMATLEESLAGLELWLETRTFLVGERMTVADISVAFALQWVYRMNVKHGEELTKKYRNAYRLYNTVMQQPKTVEVLKQWGATFGPAKAPKKAAEAKPKEGKKPKEAVEDEEEQPAKEEKKSNPLDALPPSSFVLDAYKREYSNTDTRTVAAPYFFEHYDAEGYTCFWARYKYNEDNKKQFMTANLVRGWFQRMEHVRKYAFGVALIIGEDAAHELVSFWVFRGKGMPEIVSEVVDTELFEWEEIKDVQAAKEKITDYLCWEGPTIPRPVLEGRCFK | soluble
GPGSMTYYRERRKTLTVQGLKDAVQESLAKYLYDNAIFCAERLYALAPTHESLHTVAHCYVTSGDAGTAYRILRAHYPYLLSATPSFATTNSSTSGNGTGVGSNTAADAAARWDCQYLLGVTCGMTQRYMEGESFLEELERQQSSSEVLYWLGVCRRHLRRGYAEEAFAKSAVLDPLNFVAFENHVKMTRTPREEVRCIYTDAAPGVGAEDAVRRSSMSGMGIGGVGGAHRHVKREALRLYLSPFASVTFLQWTYRCKEARALLQHESFPERDSGWAFGALAMAYFHDGDVENSTVEFANMRRVAPWRLADPALVYYSTALWQRKELGTLGSLSQTLINEMPASPITLCVVANNYSLAKESKESLCMLNRAIQVDHDFAYAHTLRGYELLYLDLKSEAVDAFHEAILIDGGHYNAYAGLGELYFRSEDLQKARNYFQQAISINPLPTIMNRYAATYHRRDATRESLNEALRIYESAIRRHPTNLGARHQRAEVLIRLGRFHEAHDELLGMTKECPDEAMLYVTLAKCVHLMGLTGQAVQYYHTAMDLDPRRVGYIKSCLERLAMGKPDVAEANA | not soluble
